Where a chain is given by its changes, count along the chain named.
B1: mAb 131 (antibody, V domains shown)
VH: EVQLVESGGGLVKTGGSLRISCVASGFSFKKAWMNWVRQAPGKGLEWVGRIKRNTDGGTIDYAAPVKGRFSLSRDDSKNTLFLQMNSLKTEDTAVYFCTTLDSSSYYVGYYYMDVWGKGTTVTVSS
VL: DIHMTQSPSSVSASVGDRVTITCRASQDINNWLAWYQQKPGKAPKLLIYTASSLQSGVPSRFSGSGSGTDFTLTISSLQPEDFATYFCQQAHSLPITFGQGTRLGIK
B2: mAb 133 (antibody, V domains shown)
VH: B1 VH with I20L, N35S, I60A, S71T, N79K, T93S, F97Y, T99V
VL: B1 VL with H3Q, T20S, S76G, F87Y, G105E
B3: mAb 132 (antibody, V domains shown)
VH: DVQLVESGGGTVKTGGSLRLSCVASGFSFKKAWMNWVRQAPGKGLEWVGRIKKNSDGGTADYAAPVKGRFTISRDDSKKTLYLQMNSLQTEDTAVYYCTTLDSSSWYVGYYYMDVWGKGTTVTVSS
VL: B1 VL with H3Q, T20I, K42I, G68V, T69S, S76G, F87Y, G105E
B4: mAb 161 (antibody, V domains shown)
VH: EVQLVESGGGLVQPGRSLRLSCAASGITFADYTMHWVRQAPGKGLEWVSGISWNSGSIDYADSVKGRFTISRDNAKKTLYLQMNRLRAEDTALYYCAKDSSGYGHYYFYYLDVWGKGTTVTVSS
VL: EIVMTQSPATLSVSPGERATLSCRASQSVSNNLAWYQQKPGQAPRLLIYSTSTRATGIPARFSGSRSGTEFTLTISSLQSEDSAVYYCQQYNNWPHFGQGTRLEIK
B5: mAb 137 (antibody, V domains shown)
VH: QVQLVESGGGVVQPGRSLRLSCAASGFTFSTYGMHWVRQAPGKGLEWVAVIWYDGSHKYYADSVKGRFTISRDNSKKTLYLQMNSLRAEDTGIYYCARTGISGNMSYFYFDHWGQGILVTVSS
VL: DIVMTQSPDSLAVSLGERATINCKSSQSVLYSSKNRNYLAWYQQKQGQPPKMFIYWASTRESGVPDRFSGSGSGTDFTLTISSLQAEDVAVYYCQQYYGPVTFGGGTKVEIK
B6: mAb 153 (antibody, V domains shown)
VH: B5 VH with A61S, K77N, A88V, G92A, S102T, N104T, M105T, S106A, H112S, I117T
VL: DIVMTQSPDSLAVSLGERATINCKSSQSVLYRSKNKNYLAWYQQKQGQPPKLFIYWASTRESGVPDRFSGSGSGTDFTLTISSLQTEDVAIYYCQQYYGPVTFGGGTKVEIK
B7: mAb 140 (antibody, V domains shown)
VH: B5 VH with K77N, G92A, I93V, S102T, N104T, M105T, S106A, H112Y, I117T
VL: not shown
B8: mAb 140 (antibody, V domains shown)
VH: B5 VH with K77N, G92A, I93V, S102T, N104T, M105T, S106A, H112Y, I117T
VL: not shown
B9: mAb 146 (antibody, V domains shown)
VH: QVQLVESGGGVVQPGRSLRLSCAASGFTFITYGMHWVRQAPGKGLEWVAVIWYDGSHKYYADSVKGRFTISRDNSKNMLYLQMNSLRVEDTAVYYCARTGITGTTAYFYFDNWGQGTLVTVSS
VL: not shown
B10: mAb 144 (antibody, V domains shown)
VH: B9 VH with G10Y, I30S, T31N, Y32F, M78T, V88A, N112Y
VL: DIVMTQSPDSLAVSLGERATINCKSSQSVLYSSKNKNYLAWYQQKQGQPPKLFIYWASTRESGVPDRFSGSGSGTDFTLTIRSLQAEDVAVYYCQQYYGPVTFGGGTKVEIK
B11: mAb 167 (antibody, V domains shown)
VH: EVHLVESGGGLVQPGRSLRLSCAASGFTFDDYAMHWVRQAPGKGLEWVSGISWNSGTIGYADSVKGRFTISRDNAKNSLYLEMNSLRAEDTALYYCAKDSSGYGHYYHYYIDVWGTGTTVTVSS
VL: EIVMTQSPATLSVSPGGRATLSCRASQSVGSNLAWYQQKPGQAPRLLIYDASTRATGIPARFRGSGSGTEFTLTISGLQSEDFAVYYCQLYYNWPHFGQGTRLEIK
B12: mAb 49 (antibody, V domains shown)
VH: EVQLVESGGGLVPPGGSLRLSCVASGFTLRSYTMNWVRQAPGQGLEWISYISSTSRTIYYSDSVKGRFTISRDNAKNSLYLQVNSLRDEDTALYYCAREDYYDSSGFDCWGQGTLVTVSS
VL: AIRMTQSPSSFSASTGDRVTITCRASQGIFNYLAWYQQKPGKAPKLLIYSTSTLQSGVPSRFSGSGSGTDFTLTIRGLQSEDLATYYCQQYYSFPRTFGQGTKVDIK
B13: mAb 42 (antibody, V domains shown)
VH: QAQLVQSGSELKKPGASVKVSCKASGYTFTKHSMNWVRQAPGQGLEWMGWINTNTGNPTYAQGFTGRFVFSLDTSVTTAYLQISSLKAEDTAVYYCAREGDYDFWSGFFNFDYWGQGTLVTVSS
VL: DIQMTQSPSSLSASVGDRVTITCRASQGIRNDLGWYQQKPGKAPKRLIYAASSLQSGVPSRFSGSGSGAEFTLTISSLQPEDFATYYCLQHNSYPRTFGQGTKVEIK
B14: mAb 50 (antibody, V domains shown)
VH: B13 VH with K31R, S33A
VL: B13 VL with Y36F, K45T
B15: mAb 43 (antibody, V domains shown)
VH: B13 VH with T59M
VL: B13 VL
B16: mAb 142 (antibody, V domains shown)
VH: B9 VH with I30S, T31S, H57N, M78T, V88A, N112S
VL: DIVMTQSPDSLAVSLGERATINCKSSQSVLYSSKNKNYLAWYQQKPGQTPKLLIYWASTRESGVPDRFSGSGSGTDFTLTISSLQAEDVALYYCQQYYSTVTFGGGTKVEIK
B17: mAb 146 (antibody, V domains shown)
VH: B9 VH
VL: not shown
B18: mAb 68 (antibody, V domains shown)
VH: EVQLVDSGGGLVQPGGSLRLSCSGSGFTFSSYWMSWVRQAPGKGLEWVANIKQDGSQKYYVDSVKGRFTISRDNVKNSLYLQMNSLRVEDTAVYYCARDESSSWYWYFDLWGRGTLVTVSS
VL: DIQMTQSPSTLSASVGDRVTLTCRASQNIVKWLAWYQQKPGKAPKLLIYKASSLESGVPSWFSGSGSGTEFTLTINSLQPDDFATYYCQQYYTYSRTFGQGTKVEIK
B19: mAb 77 (antibody, V domains shown)
VH: EVQLVESGGGLVQPGGSLRLSCAASGFTFSNYWMSWVRQAPGKGLEWVANIKQDGSEKYYVDSVRGRFTISRDNAKKSLYLQMNSLRAEDTAVYYCARDNSNYAYWYFDIWGRGTLVTVSS
VL: B18 VL with A13V, L21I, N28S, V30R, Y49F, W61R, N76S, Y92D
B20: mAb 141 (antibody, V domains shown)
VH: QVQLVQSGAEVKKPGASVKVSCKASGYTFTSYYIHWVRQAPGQGLDWMGIINPSGGITGYAQKLQGRVTMTRDTSTTTVYMELSSLRSDDTAVYYCARGVRGNYYYYYMDVWGKGTTVTVSS
VL: EIVLTQSPDFQSVTPKEKVTITCRASQSIGSKLHWYQQKPDQSPKLLIKYASQSFSGVPSRFSGSGSGTDFNLTINSLEAEDAATFYCHQSSGLPYTFGQGTKLEIK
B21: mAb 145 (antibody, V domains shown)
VH: B20 VH with S31N, L64F
VL: B20 VL with Y50F, A80P

Key:
human CD3 = human CD3 (human, UniProt P07766 23-207; P04234 22-171; P09693 23-182); test: cell-based or functional assay
[1] = target: T1, human CD3 expressed on cells (human, UniProt P07766 23-207; P04234 22-171; P09693 23-182); test: flow cytometry, 25 nM
T1 construct: whole, on cells; CD3 complex on Jurkat cells and on human primary T cells
Description: Purified antibodies were confirmed to bind CD3 expressed on cells using the CytoFLEX S or LX flow cytometers (Beckman Coulter). Antibodies were diluted to 25 nM in FACS buffer (PBS+2% FBS) and were incubated with CD3-expressing cells for 30 minutes at 4° C. […] The median fluorescence intensity of the binding signal for each antibody was normalized to the isotype control to obtain a fold over isotype value. An antibody with a fold over isotype (FOI) of ≥10 was considered to be positive for binding.

human CD3, sequence (P07766 23-207, chain 1 of 3): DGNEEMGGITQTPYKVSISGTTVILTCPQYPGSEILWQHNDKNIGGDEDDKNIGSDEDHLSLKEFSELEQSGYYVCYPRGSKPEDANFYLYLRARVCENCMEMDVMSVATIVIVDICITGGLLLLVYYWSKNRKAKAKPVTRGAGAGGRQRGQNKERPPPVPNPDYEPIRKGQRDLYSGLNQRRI
human CD3, sequence (P04234 22-171, chain 2 of 3): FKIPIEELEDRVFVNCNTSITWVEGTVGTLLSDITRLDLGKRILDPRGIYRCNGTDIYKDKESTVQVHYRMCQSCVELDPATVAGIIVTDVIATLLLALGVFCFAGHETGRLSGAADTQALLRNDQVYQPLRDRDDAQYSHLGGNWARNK
human CD3, sequence (P09693 23-182, chain 3 of 3): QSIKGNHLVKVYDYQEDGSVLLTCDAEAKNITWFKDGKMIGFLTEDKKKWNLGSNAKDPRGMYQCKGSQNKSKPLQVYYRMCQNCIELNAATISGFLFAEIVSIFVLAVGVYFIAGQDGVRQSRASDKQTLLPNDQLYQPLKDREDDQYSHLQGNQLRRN
T1 sequence (P07766 23-207, chain 1 of 3): as the sequence (P07766 23-207, chain 1 of 3) above
T1 sequence (P04234 22-171, chain 2 of 3): as the sequence (P04234 22-171, chain 2 of 3) above
T1 sequence (P09693 23-182, chain 3 of 3): as the sequence (P09693 23-182, chain 3 of 3) above

Binder	CD4 EC50 (nM); CD69/CD25 on human T cells, plate-coated antibody (human CD3) [nM]	CD8 EC50 (nM); CD69/CD25 on human T cells, plate-coated antibody (human CD3) [nM]	Human primary T Cell Binding (FOI) [1] [FOI]	Jurkat Cell Binding (FOI) [1] [FOI]
B1	13.3	13.3		
B2	13.9	13.6		
B3	6.39	6.34		
B4			170	106
B5	13.1	14.1		
B6	8.76	8.56		
B7			148	135
B8	13.7	17.8		
B9			340	194
B10			157	139
B11			167	124
B12	6.76	6.65		
B13	25.4	25.5		
B14	26.3	24.5		
B15			83.3	108
B16	26.9	32		
B17	12.5	12.6		
B18			117	113
B19			125	106
B20	22.1	22.8		
B21	13.3	14.9		

Reference: US20230295310A1 (ABCELLERA BIOLOGICS, published 2023)
